# Test results as given in patent US20230365640A1 (ACADEMIA SINICA, published 2023).
# B1: Mincle.Fc (CLEC4F) protein (Fc fusion)
# chain: RCVVTFRIFQTCDEKKFQLPENFTELSCYNYGSGSVKNCCPLNWEYFQSSCYFFSTDTISWALSLKNCSAMGAHLVVINSQEEQEFLSYKKPKMREFFIGLSDQVVEGQWQWVDGTPLTKSLSFWDVGEPNNIATLEDCATMRDSSNPRQNWNDVTCFLNYFRICEMVGINPLNKGKSL
# B2: Dectin-1.Fc (CLEC7A) protein (Fc fusion)
# chain: TMAIWRSNSGSNTLENGYFLSRNKENHSQPTQSSLEDSVTPTKAVKTTGVLSSPCPPNWIIYEKSCYLFSMSLNSWDGSKRQCWQLGSNLLKIDSSNELGFIVKQVSSQPDNSFWIGLSRPQTEVPWLWEDGSTFSSNLFQIRTTATQENPSPNCVWIHVSVIYDQLCSVPSYSICEKKFSM
# B3: Dectin-2.Fc (CLEC6A) protein (Fc fusion)
# chain: TYHFTYGETGKRLSELHSYHSSLTCFSEGTKVPAWGCCPASWKSFGSSCYFISSEEKVWSKSEQNCVEMGAHLVVFNTEAEQNFIVQQLNESFSYFLGLSDPQGNNNWQWIDKTPYEKNVRFWHLGEPNHSAEQCASIVFWKPTGWGWNDVICETRRNSICEMNKIYL
# B4: CLEC5A.Fc protein (Fc fusion)
# chain: PQIFNKSNDGFTTTRSYGTVSQIFGSSSPSPNGFITTRSYGTVCPKDWEFYQARCFFLSTSESSWNESRDFCKGKGSTLAIVNTPEKLKFLQDITDAEKYFIGLIYHREEKRWRWINNSVFNGNVTNQNQNFNCATIGLTKTFDAASCDISYRRICEKNAK
# Target: recombinant SARS-CoV-2 RBD (His-tagged SARS-CoV-2 RBD fusion protein) (SARS-CoV-2, UniProt P0DTC2 328-585)
# Assay: ELISA
row,Binder,binding result
1,B1,no binding (tested: 50 µg/ml)
2,B2,no binding (tested: 50 µg/ml)
3,B3,no binding (tested: 50 µg/ml)
4,B4,no binding (tested: 50 µg/ml)
